± gives the standard deviation of the averaged measurements.
Experiment: total protein half-life in vivo (active degradation + dilution); higher = more stable protein
[1] = E. coli NCM3722 delta-clpP delta-lon delta-hslV, growth: N-lim chemostat, doubling time 6 h
[2] = E. coli NCM3722 delta-hslV, growth: N-lim chemostat, doubling time 6 h
[3] = E. coli NCM3722 delta-lon, growth: N-lim chemostat, doubling time 6 h
[4] = E. coli NCM3722 delta-smpB, growth: N-lim chemostat, doubling time 6 h
[5] = wild type E. coli NCM3722, growth: N-lim chemostat, doubling time 6 h
[6] = wild type E. coli NCM3722, growth: N-lim chemostat, doubling time 12 h

Row | Substance | total protein half-life in vivo [1] | total protein half-life in vivo (E. coli NCM3722 delta-clpP, growth: N-lim chemostat, doubling time 6 h) | total protein half-life in vivo [2] | total protein half-life in vivo [3] | total protein half-life in vivo [4] | total protein half-life in vivo (wild type E. coli NCM3722, growth: C-lim chemostat, doubling time 3 h) | total protein half-life in vivo (wild type E. coli NCM3722, growth: C-lim chemostat, doubling time 6 h) | total protein half-life in vivo (wild type E. coli NCM3722, growth: C-lim chemostat, doubling time 12 h) | total protein half-life in vivo [5] | total protein half-life in vivo [6] | total protein half-life in vivo (wild type E. coli NCM3722, growth: P-lim chemostat, doubling time 6 h) | total protein half-life in vivo (wild type E. coli NCM3722, growth: P-lim chemostat, doubling time 12 h)
1 | P30015 | 6.18 ± 0.094 h | 5.87 ± 0.33 h | 5.75 ± 0.43 h | 5.14 ± 0.24 h | 4.71 ± 0.31 h | 2.92 h | 6.31 ± 0.44 h | 11.4 ± 3.1 h | 5.5 ± 0.47 h | 9.93 ± 0.82 h | 5.97 ± 0.43 h | 11.8 ± 0.42 h
2 | P77704 | 6.54 ± 0.9 h | – | 1.5 h | 2.26 h | 1.31 h | – | – | – | 1.53 ± 0.3 h | 2.2 h | – | –
